Assay results from patent US10772928B2, “Modulation and detection of a neuronal alternative splicing regulatory network for treatment and diagnosis of neurological disorders” (The Governing Council of the University of Toronto, priority 2014, dated 2020).

T1: nSR100 (Mus musculus, UniProt Q8BKA3)
T1 construct: host or cells: mouse N2A cells
T1 sequence (Q8BKA3 1-608): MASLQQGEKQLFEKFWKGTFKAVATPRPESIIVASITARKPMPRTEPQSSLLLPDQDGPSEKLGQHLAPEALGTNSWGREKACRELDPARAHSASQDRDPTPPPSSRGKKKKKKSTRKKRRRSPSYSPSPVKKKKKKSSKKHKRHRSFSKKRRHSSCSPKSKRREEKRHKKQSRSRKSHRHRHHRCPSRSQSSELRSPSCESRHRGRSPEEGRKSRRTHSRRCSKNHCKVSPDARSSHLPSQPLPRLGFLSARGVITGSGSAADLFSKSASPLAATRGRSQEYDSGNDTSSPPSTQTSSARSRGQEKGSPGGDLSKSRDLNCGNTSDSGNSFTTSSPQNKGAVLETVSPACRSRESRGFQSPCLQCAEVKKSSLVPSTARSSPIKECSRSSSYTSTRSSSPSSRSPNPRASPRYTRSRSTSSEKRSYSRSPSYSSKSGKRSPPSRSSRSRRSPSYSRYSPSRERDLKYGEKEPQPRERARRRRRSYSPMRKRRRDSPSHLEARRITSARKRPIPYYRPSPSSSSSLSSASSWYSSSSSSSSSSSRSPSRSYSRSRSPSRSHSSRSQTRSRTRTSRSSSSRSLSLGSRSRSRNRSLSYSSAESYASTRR


Biological target: T1, nSR100
Assay: AP-MS nSR100 interaction partners from mouse N2A cells (Table 5)
Format: binding
Details: for AvgP (average of the SAINT scores) / MaxP (maximal SAINT score): bait Srrm4; for FoldChange between the prey Avg spectra of the bait and control purifications: bait Srrm4, 0.1 added to prevent division by 0; for AvgSpec (average number of spectra per replicate): bait Srrm4, 2 replicates; for Spectra (number of spectra for the prey in the purification of the bait): AP-MS; for SpecSum: bait Srrm4, sum of spectra over 2 replicates
[1] = bait Srrm4, biological replicate 1 (first number of the cell)
[2] = bait Srrm4, biological replicate 2 (second number of the cell)

From the text: By applying affinity purification coupled to mass-spectrometry (AP-MS), several interaction nSR100 partner proteins were detected that provide insight into mechanisms of post-translational regulation of nSR100 levels.

AvgP (average of the SAINT scores)	MaxP (maximal SAINT score)	FoldChange between the prey Avg spectra of the bait and control purifications	AvgSpec (average number of spectra per replicate)	Spectra (number of spectra for the prey in the purification of the bait) [1]	Spectra (number of spectra for the prey in the purification of the bait) [2]	SpecSum	Molecule
1	1	70	7	5	9	14	Snip1 (protein, UniProt Q8BIZ6 1-383, looked up) Smad nuclear-interacting …: MKAGKSERERSGRRRHRSGDALTTVVVKQERLSPEPVAHRRPDAPAASLSPPAAEPGHSGHRGSRARSPAKKKSKSSGRRSKSPRTKRSQSPHYPMVKVKQEREDHPRRGREDRQHREPSEQEHRRARNSERDRHRGHSRQGRSSDERPVSGQDRDRDSQNLQAQEEERDFHNARRREHRQQNESAGSEAQEVIPRPAGNRSKEVPVKEKPSFELSGALLEDTNTFRGVVIKYSEPPEARIPKKRWRLYPFKNDEVLPVMYIHRQSAYLLGRHRRIADIPIDHPSCSKQHAVFQYRLVEYTRADGTVGRRVKPYIIDLGSGNGTFLNNKRIEPQRYYELKEKDVLKFGFSSREYVLLHESSDTSELDRKEDEDDEEEEMVSDS
1	1	7.33	55	45	65	110	Luc7l3 (protein, UniProt Q5SUF2 1-432, looked up) Luc7-like protein 3: MISAAQLLDELMGRDRNLAPDEKRSNVRWDHESVCKYYLCGFCPAELFTNTRSDLGPCEKIHDENLRKQYEKSSRFMKVGYERDFLRYLQSLLAEVERRIRRGHARLALSQNQQSSGAAGPTGKNEEKIQVLTDKIDVLLQQIEELGSEGKVEEAQGMMKLVEQLKEERELLRSTTSTIESFAAQEKQMEVCEVCGAFLIVGDAQSRVDDHLMGKQHMGYAKIKATVEELKEKLRKRTEEPDRDERLKKEKQEREEREKEREREREERERKRRREEEEREKERARDRERRKRSRSRSRHSSRTSDRRCSRSRDHKRSRSRDRRRSRSRDRRRSRSHDRSERKHRSRSRDRRRSKSRDRKSYKHRSKSRDREQDRKSKEKEKKGSDDKKSSVKSSSREKQSEDTNPESKESDTKNEVNGTSEDIKSEGDTQSN
1	1	225	22.5	17	28	45	Sap18 (protein, UniProt O55128 2-153, looked up) Histone deacetylase complex …: AVESRVTQEEIKKEPEKPIDREKTCPLLLRVFTTNNGRHHRMDEFSRGNVPSSELQIYTWMDATLKELTSLVKEVYPEARKKGTHFNFAIVFMDLKRPGYRVKEIGSTMSGRKGTDDSMTLQSQKFQIGDYLDIAITPPNRAPPSSGRMRPY
1	1	40	4	4|4	4|4	8	Ftsjd2 (protein, UniProt Q9DBC3 1-837, looked up) Cap-specific mRNA …: MKRRTDPECTAPLKKQKRIGELARHLSSTSDDEPLSSVNHAAKASATSLSGSDSETEGKQPCSDDFKDAFKADSLVEGTSSRYSMYNSVSQRLMAKMGFREGEGLGKYSQGRKDIVETSNQKGRRGLGLTLQGFDQELNVDWRDEPEPNACEQVSWFPECTTEIPDSREMSDWMVVGKRKMVIEDETEFCGEELLHSMLKCKSVFDILDGEEMRRARTRANPYEMIRGVFFLNRAAMKMANMDFVFDRMFTNPLDSSGKPLLKESDIDLLYFADVCAGPGGFSEYVLWRKKWHAKGFGMTLKGPNDFKLEDFYSASSELFEPYYGEGGVDGDGDITRPENINAFRNFVLDNTDRKGVHFVMADGGFSVEGQENLQEILSKQLLLCQFLMALSVVRTGGHFVCKTFDLFTPFSVGLIYLLYCCFERVCLFKPITSRPANSERYVVCKGLKVGIDDVREYLFSVNIKLNQLRNTESDVNLVVPLMVIKGDHEFNDYMIRSNESYCSLQIKALAKIHAFVQDTTLSEPRQAEIRKECLQLWKIPDQARVAPSSSDPKFKFFELIKDTDINIFSYKPTLLTAKTLEKIRPVLEYRCMVSGSEQKFLLGLGKSQIYTWDGRQSDRWVKLDLKTELPRDTLLCVEIVHELKGEGKAQRKISAIHILDVLVLNGSDVREQHFNQRIQLAEKFVKAVSKPSRPDMNPIRVKEVYRLEEMEKIFVRLEMKLIKGSGGTPKLSYTGRDDRHFVPTGVYIVRTVNEPWTMGFSKSNNRKFFYNKKTQKSVYALPTESIAPFHTCYYSRLFWEWGDGFHMRDSQKPQDPDKLSKEDVLSFIQSHNPLGP
1	1	55	5.5	6	5	11	Snrpb2 (protein, UniProt Q9CQI7 1-225, looked up) U2 small nuclear …: MDIRPNHTIYINNMNDKIKKEELKRSLYALFSQFGHVVDIVALKTMKMRGQAFVIFKELGSSTNALRQLQGFPFYGKPMRIQYAKTDSDIISKMRGTFADKEKKKEKKKAKTMEQAAAAANKKPGQGTPNAANTQGTAAPNPQVPDYPPNYILFLNNLPEETNEMMLSMLFNQFPGFKEVRLVPGRHDIAFVEFENDGQAGAARDALQGFKITPSHAMKITYAKK
1	1	5.13	79.5	83	76	159	Ap2b1 (protein, UniProt Q9DBG3 2-937, looked up) AP-2 complex subunit beta: TDSKYFTTNKKGEIFELKAELNNEKKEKRKEAVKKVIAAMTVGKDVSSLFPDVVNCMQTDNLELKKLVYLYLMNYAKSQPDMAIMAVNSFVKDCEDPNPLIRALAVRTMGCIRVDKITEYLCEPLRKCLKDEDPYVRKTAAVCVAKLHDINAQMVEDQGFLDSLRDLIADSNPMVVANAVAALSEISESHPNSNLLDLNPQNINKLLTALNECTEWGQIFILDCLSNYNPKDDREAQSICERVTPRLSHANSAVVLSAVKVLMKFLELLPKDSDYYNMLLKKLAPPLVTLLSGEPEVQYVALRNINLIVQKRPEILKQEIKVFFVKYNDPIYVKLEKLDIMIRLASQANIAQVLAELKEYATEVDVDFVRKAVRAIGRCAIKVEQSAERCVSTLLDLIQTKVNYVVQEAIVVIRDIFRKYPNKYESIIATLCENLDSLDEPDARAAMIWIVGEYAERIDNADELLESFLEGFHDESTQVQLTLLTAIVKLFLKKPSETQELVQQVLSLATQDSDNPDLRDRGYIYWRLLSTDPVTAKEVVLSEKPLISEETDLIEPTLLDELICHIGSLASVYHKPPNAFVEGSHGIHRKHLPIHHGSTDAGDSPVGTTTTTNLEQPQVIPSQGDLLGDLLNLDLGPPVNVPQVSSMQMGAVDLLGGGLDSLVGQSFIPSSVPATFAPSPTPAVVSSGLNDLFELSTGIGMAPGGYVAPKAVWLPAVKAKGLEISGTFTHRQGHIYMEMNFTNKALQHMTDFAIQFNKNSFGVIPSTPLAIHTPLMPNQSIDVSLPLNTLGPVMKMEPLNNLQVAVKNNIDVFYFSCLIPLNVLFVEDGKMERQVFLATWKDIPNENELQFQIKECHLNADTVSSKLQNNNVYTIAKRNVEGQDMLYQSLKLTNGIWILAELRIQPGNPNYTLSLKCRAPEVSQYIYQVYDSILKN
1	1	110	11	10	12	22	Cdc5l (protein, UniProt Q6A068 1-802, looked up) Cell division cycle 5-like …: MPRIMIKGGVWRNTEDEILKAAVMKYGKNQWSRIASLLHRKSAKQCKARWYEWLDPSIKKTEWSREEEEKLLHLAKLMPTQWRTIAPIIGRTAAQCLEHYEFLLDKTAQRDNEEETTDDPRKLKPGEIDPNPETKPARPDPIDMDEDELEMLSEARARLANTQGKKAKRKAREKQLEEARRLAALQKRRELRAAGIEIQKKRKKKRGVDYNAEIPFEKKPALGFYDTSEENYQALDADFRKLRQQDLDGELRSEKEGRDRKKDKQHLKRKKESDLPSAILQTSGVSEFTKKRSKLVLPAPQISDAELQEVVKVGQASEVARQTAEESGITNSASSTLLSEYNVTNNSIALRTPRTPASQDRILQEAQNLMALTNVDTPLKGGLNTPLHESDFSGVTPQRQVVQTPNTVLSTPFRTPSNGAEGLTPRSGTTPKPVTNATPGRTPLRDKLNINPEDGMADYSDPSYVKQMERESREHLRLGLLGLPAPKNDFEIVLPENAEKELEEREIDDTYIEDAADVDARKQAIRDAERVKEMKRMHKAVQKDLPRPSEVNETILRPLNVEPPLTDLQKSEELIKKEMITMLHYDLLHHPYEPSGNKKGKNVGFATNNSEHITYLEHSPYEKFSKEDLKKAQDALVQEMEVVKQGMSHGELSSEAYNQVWEECYSQVLYLPAQSRYTRANLASKKDRIESLEKRLEINRGHMTTEAKRAAKMEKKMKILLGGYQSRAMGLMKQLNDLWDQIEQAHLELRTFEELKKHEDSAIPRRLECLKEDVQRQQEREKELQQRYADLLMEKETLQAKF
